Data as given in the nanobody polyreactivity screen of Harvey et al. (2022).

Experiment: yeast display, Sf9 membrane polyspecificity reagent, FACS + sequencing; frameworks hold sequencing errors
Outline: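 Nanobodies from a synthetic yeast display library (Saccharomyces cerevisiae BJ5465), induced 36–48 hours with galactose, were stained 1 hour at 4 °C with 10% biotinylated, detergent-solubilized Sf9 membrane reagent, enriched on streptavidin microbeads, then FACS-sorted. Anti-HA (expression) and streptavidin (reagent binding) fluorescence set low and high (top ~1%) gates. Polyreactivity labels come from the gate of origin. Genes were colony-PCR amplified, MiSeq 2 × 250 sequenced and filtered by CDR length.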

For “QVQLVESGGGLVQAGGSLRLSCAASGSTFYGYVMGWYRQAPGKERELVAGITRGGSTNYADSVKGRFTISRDNAKNTVYLQMNSLKPEDTAVYYCATRYFSRYYYWGQGTQVTVSS”, the “polyreactivity (PSR sort gate)” value was “high polyreactivity”.
For “QVQLVESGGGLVQAGGSLRLSCAASGSTFIFNAMGWYRQAPGKERELVAAISWRLGRTYYADSVKGRFTISRDNAKKTVYLQMNSLKPEDTAVYYCARDYSRHKGDYWGQGTQVTVSS”, the “polyreactivity (PSR sort gate)” value was “low polyreactivity”.
With “QVQLVESGGGLVQAGGSLRLSCAASGSIFSKNAMGWYRQAPGKERELVAAITWSGGRTYYADSVKGRFTISRDNAKNTVFLQMNSLKPEDTAVYYCAAVSRVRYYLQTYDSWGQGTQVTVSS” the “polyreactivity (PSR sort gate)” value was “high polyreactivity”.
With “QVQLVESGGGLVQAGGSLRLSCAASGIIFAQYTMGWYRQAPGKERELVAAINRNGGSTYYADSVKGRFTISRDNAKNTVYLQMNSLKPEDNAVYYCIADALGFRFDYWGQGTQVTVSS” the “polyreactivity (PSR sort gate)” value was “low polyreactivity”.
With “QVQLVESGGGLVQAGGSLRLSCAASGSIFSRYAMGWYRQAPGNERELVAAITSGGSTKYADSVKGRFTISRDNAKNTVYLQMNSLKPEDTAVYYCNADRRFRKYPFGYWGQGTQVTVSS” the “polyreactivity (PSR sort gate)” value was “high polyreactivity”.
With “QVQLVESGGGLVQAGGSLRLSCAASGSIFDSYAMGWSRQAPGKERELVAAISSGGSTNYADSVKGRFTISRDNEKNTVILQMYSLKTEDTAVYFCAADGSLDAYNYWGQGTQVSVSS” the “polyreactivity (PSR sort gate)” value was “low polyreactivity”.
For “QVQLVESGGGLVQAGGSLRLSCAASGIIFSFYAMGWYRQAPGKERELVAAISRSGGSTYYADSVKGRFTISRDNEKNSVYLQMNSLKPEDTAVYYCNADNGASYYYRRYDSLGQGTQVTVSS”, the “polyreactivity (PSR sort gate)” value was “high polyreactivity”.
In the case of “QVQLVESGGGLVQAGGSLRLSCAASGSTFWFNDMGWYRQAPGKEREFVAAISSIGGSTYYADSVKGRFTISRDNAKNTVYLQMNSLKPEDTAVYYCAADRLQYYNPYDYWGQGTQVTVSS”, the “polyreactivity (PSR sort gate)” value is reported as “low polyreactivity”.
With “QVQLVESGGGLVQAGGSLRLSCAASGRIFGEKAMGWYRQAPGKERELVADITWSGTSTYYADSVKGRFTISRDNAKNTVYLQMNSLKPEDTAVYYCAASATLFSSRGKRYYWGQGTQVTVSS” the “polyreactivity (PSR sort gate)” value was “low polyreactivity”.
With “QVQLVESGGGLVQAGGSLRLSCAASGSIFWPNVMGWYRQAPGKDRELVAAIRSDGSTYYADSVKGRFTISRDNAKNTVYLQMNSLKPEDAAVYYCATKFFRQTIYRAKYNYWGQGTQVTVSS” the “polyreactivity (PSR sort gate)” value was “low polyreactivity”.
In the case of “QVQLVESGGGLVQAGGSLRLSCAAAGRTFGDYDMGWYRQAPGKERELVAAITSDGTTYYADSVKGRFTISRDNAKNTVYLQMNSLKPEDTAVYYCAADYWYVSWYDYWGQGTQVTVSS”, the “polyreactivity (PSR sort gate)” value is reported as “low polyreactivity”.
For “QVQLVESGGGLLQAGGSLRLSCAASGFTFRVNAMGWYRQAPGKERELVASITVSDARTYYADSVKGRFTISRDNAKNTVYLQMNSLKPEDTAVYYCAADYKGAFTTDWSSEYEYWGQGTQVTVSS”, the “polyreactivity (PSR sort gate)” value was “low polyreactivity”.
For “QVQLVESGGGLVQAGGSLRLSCAASGNTFVPYAMGWYRQAPGKERELVAAITFSAGRTYYADSVKGRFTISRDNAKNTVYLQMNSLKPEDTAVYYCNVYWYNNYRGYYYWGQGTQVTVSS”, the “polyreactivity (PSR sort gate)” value was “high polyreactivity”.
In the case of “QVQLVESGGGLVQAGGSLRLSCAASGFTSRKNAMGWYSQAPGKERELVAAITQSSGRTYYADSVKGRFTISRDNAKNTVYLQMNSLKPEDTAVYYCAARRGGEDDYWGQGTQVTVSS”, the “polyreactivity (PSR sort gate)” value is reported as “low polyreactivity”.
With “QVQLVESGGGLVQAGGSLRLSCAASGLTFPYYAMGWYRQAPGKERELVATISWSSISTYYADSVKGRFTISRDNAKNTVYLQMNSLKPEDTAVYYCNARYSLRRGYDYWGQGTQVTVSS” the “polyreactivity (PSR sort gate)” value was “low polyreactivity”.
In the case of “QVQLVESGGGLVQAGGSLGLSCAASGSTFLHDAMGWYRQAPGKERELVAAISVSGVRTYYADSVKGRFTISRDNGKNTVYLQMNSLKPEDTAVYYCAADGHHADYDFWGQGTQVTVSS”, the “polyreactivity (PSR sort gate)” value is reported as “low polyreactivity”.
With “QVQLVESGGGLVQAGGSLRLSCAASGFTFGYYAMGWYRQAPGKERELVAAITGSGGSTYYADSVKGRFTISRDNAKNTVYLQMNSLKPEDTAVYYCAADKAVYRGSPKNRSPYYYWGQGTQVTVSS” the “polyreactivity (PSR sort gate)” value was “high polyreactivity”.
In the case of “QVQLVESGGGLVQAGGSLRLSCAASGNTFYGYAMGWYSQAPGQERELVASITLSGDSTYYADSVKGRFTISRDNAKNTVYLQMNTLKPEDTAVYYCAGVYTYPLGYYHYTYDYWGQGTQVTVSS”, the “polyreactivity (PSR sort gate)” value is reported as “low polyreactivity”.
For “QVQLVESGGGLVQAGGSLRLICAASGSKFSSYCMGWYRQATGQEMELVAAISKRGGSTYYADTVKGRFTISRDNAKNTVYLQMNSLKPEDTAVYYCAAAVSIQGYSTLFDYWGQGTQVTVSS”, the “polyreactivity (PSR sort gate)” value was “high polyreactivity”.
In the case of “QVQLVETGGGLVQAAGSLRLSTAASGSTYWCNTMGWYRQAPGKERELVADIRTSGGGTYYADSVKGRFTISRDNAKNTVYLQMNRLKPEDTAVYYCNAVPNWEMGSWGLGTQVTVSS”, the “polyreactivity (PSR sort gate)” value is reported as “low polyreactivity”.
With “QVQLVESGGGLVQAGGSLRLSCAASGSTFAYYAMGRYRQAPGKERELVAAISTIAGRTYYADSVKGRFTISRDTAKNSVSLQMNSLNPEDTAFYYCNAYWWFFGGYDYWGQGTQVTVSS” the “polyreactivity (PSR sort gate)” value was “high polyreactivity”.
For “QVQLVESGGGLVQAGGSLRLSCAASGFIFPNYAMGWYRQAPGKVRELVAAISVRGGNTYYADSVKGRFTISRDNAKNTVYLQMNSLKPEDTAVYYCNAVLRSGYFPEYYYWGQVTQVTVSS”, the “polyreactivity (PSR sort gate)” value was “high polyreactivity”.
In the case of “QVQLVESGGGLVQAGGSISLSCAASGFIFDDNAMGCYRQAPGKERELVAAISQGAGRTYYADSVKGRFTISRDNAKNTVYLQMNSVKPEDTAVYYCNSGRPKYWYGSKYDYWGQGTQVTVSS”, the “polyreactivity (PSR sort gate)” value is reported as “low polyreactivity”.
For “QVQLVESGGGLVQAGGSLRLSCAASGRIFYPYTMGWYRQAPGKERELVAAISSGSRTNYADSVKGRFTISRDNAKNTVYLQMNSLKPEDTAVYYCAAAAYSYKRVYQTFTFGYWGQGTQVTVSS”, the “polyreactivity (PSR sort gate)” value was “high polyreactivity”.
In the case of “QVQLVVSGGGLVQAGGSLRLSCAASGFIFVNYAMGWYRQAPGKDGELVAAISRGGGRTYYADSVKGRFTISRDNAKNTVYLQMNSLKPEDTAVYYCNARRLGYHQRYFWGQGTQVTVSS”, the “polyreactivity (PSR sort gate)” value is reported as “high polyreactivity”.
In the case of “QVQLVESGGGLVQAGGSLRLSCAASGSTFTGNSMGWYRQAPGKERELVAAISSSGASTYYADSVKGPFTISRDNAKNTVYLQMNSLKPEDTAVYYCAAELFYYPTPFREYDYWGQGTQVTVSS”, the “polyreactivity (PSR sort gate)” value is reported as “low polyreactivity”.
In the case of “QVQLVESGGGVVQAGGSLRLSCAASGRTFSYNALGWNRQAPGKEREVVAAINGDGGSTYYADSVKGRFTSSRDNAKNTVYLQMNSLKPEDTAVYYCNRRGIYRYGYWGQGTEVTVSS”, the “polyreactivity (PSR sort gate)” value is reported as “high polyreactivity”.
In the case of “QVQLVESGGGLVQAGGSLRLSCAASGLIFGRYAMGWYRQAPGKERELVAAISSSGVRTYYADSVKGRFTISRDNAKNTVYLQMNSLKPEDTAVYYCAAAYWSSREDTVIKRYYWGQGTQVTVSS”, the “polyreactivity (PSR sort gate)” value is reported as “high polyreactivity”.
For “QVQLVESGGGLVQAGGSLRLSCAASGRIFRGYVMGWYRQAPGKERELVARITKSGGRTYYADSVKGRFTISRDNAKNTVYLQMNSLKPEDTAVYYCNTAWTGYPRYQYGGNYWGQGTQVTVSS”, the “polyreactivity (PSR sort gate)” value was “high polyreactivity”.
In the case of “QVQLVESGGGLVQAGGSLRLSCAASGRTFNVNAMGWYRQAPGKERELVASITWSDGSTYYADSVKGRFTISRDNAKNTVYLQMNSLKPEDTAVYYCNVTYGLESSYPRDDYWGQGTQVTVSS”, the “polyreactivity (PSR sort gate)” value is reported as “low polyreactivity”.
For “QVQLVESGGGLVQAGGSLRLSCAASGLTFSVYAMGWYRQAPGKERELVAAITSSGRTYYADSVKGRFTISRDNAKNTVYLQMNSLKPEDTAVYYCAAGYKSGPRRYYYWGQGTQVTVSS”, the “polyreactivity (PSR sort gate)” value was “high polyreactivity”.
In the case of “QVQLVESVGGLVQAGGSLRLSCAASGRTFKFYAMGWYRQAPGKERELVAAISSSGGRTYYADSVKGRFTISRDIAKNTVYLQMNSLKPVDTAVYYCARSSDYYFFGHYYWGQGTQVTVSS”, the “polyreactivity (PSR sort gate)” value is reported as “high polyreactivity”.
In the case of “QVQLVESGGGLVQAGGSLRLSCAASGSTISPYAMGWYRQAPGKEREFVAAISRSGGSTYYADSVKVRFTISRDNAKNTVYLQMNSLKPEDTAVYYCARRYARITPVYPPLNYWGQGTQVTVSS”, the “polyreactivity (PSR sort gate)” value is reported as “high polyreactivity”.
For “QVQLVESGGGLVQAGGSLRLSCAASGSISGIYAMGWYRQAPGKERELVAAISRGGSTNYADSVKGRFTISRDNAKNTVYLQMNSLKPEDTAVYYCAARTAYYPYRQRYYYWGQGTQVTVSS”, the “polyreactivity (PSR sort gate)” value was “high polyreactivity”.
In the case of “QVQLVESGGGLVQAGGSLRLSCAASGFILSRYTMGWYRQAPGKERELVATISSGGRTYYADSVKGRFTISRDNAKNTVYLQMNSLKPEDTAVYYCAAAYTYWRISGNRYLYDYWGQGTQVTVSS”, the “polyreactivity (PSR sort gate)” value is reported as “high polyreactivity”.
In the case of “QVQLVESGGGLVQAGGSLRLSCAASGGIFDTNAMGWSRQAPGKERELVAAIRGSGGTYYADSVKGRFTISRDNAKNTVYLQMNSLKPEDTAVYYCATRTYRVLAGSAWYHYNYWGQGTQVTVSS”, the “polyreactivity (PSR sort gate)” value is reported as “high polyreactivity”.
With “QVQLVESGGGLVQAGGSLRLSCAASGYIFGYNAMGWYRPAPGKERELVAAISRSAGRTYYADSVKGRFTISRDNAKNTVYLQMNSLKPEDSAVYYCAAQSYWLGYEYWGQGTQVTVSS” the “polyreactivity (PSR sort gate)” value was “high polyreactivity”.
In the case of “QVQLVESGGGLVQAGGSLRLSCAASGFTFYLYAMGWYRQAPGKERELVAAINSGSSTYYADSVKGRFTISRDNAKNTVYLQMNSLKPEDTAVYYCATDTDRTMDYWGQGTQVTVSS”, the “polyreactivity (PSR sort gate)” value is reported as “low polyreactivity”.
For “QVQLVESGGGLVQAGGSLRLSCAASGRTFVPYAMGWYRQAPGKERELVASITWRGGRTYYADSVKGRFTISRDNAKNTVYLQMNSLKPEDTAVYYCAAVGGYASYFHLYYYWGQGTQVTVSS”, the “polyreactivity (PSR sort gate)” value was “high polyreactivity”.
For “QVQLVDSGGGLVQAGGSLRLICAASGSISSYYAMVWYRQAPGKERELVAAITSGGRTYYADSVKGRFTISRDNAKNTVYLQMNSLKPEDTAVYYCNARTARNPIKGRASYYWGQGTQVTVSS”, the “polyreactivity (PSR sort gate)” value was “high polyreactivity”.
With “QVQLVDSGGGLVQAGGSLRLSCAASGYTFEAYAMGWYRQAPGKERELVAAINYSGGSTYADSVKGRFTISRDNAKNTVYLQMNSLKPEDTAVYYCATRLYGYWPYGFDYWGQGTQVTVSS” the “polyreactivity (PSR sort gate)” value was “low polyreactivity”.
In the case of “QVQLVESGGGLVQAGGSLRLSCAASGSTFGFYAMGWYRQAPGKERELVAAISSSGSTYYADSVKGRFTISRDNAKNTVYLQMISLKPEDTAVYYCAAQPGYYDYDYWGQGTQVTVSS”, the “polyreactivity (PSR sort gate)” value is reported as “low polyreactivity”.
For “QVQLVESGGGLVQAGGSLRLSWAASGSIFYQNPMGSYRQAPGKERELVAAISSAGSTYYADSVKGRFTISRDNAKNTVYLQMNSLKPADTAVYYCAADDLGWWFYSGGEDYYYWGQATQVTVSS”, the “polyreactivity (PSR sort gate)” value was “low polyreactivity”.
